Test results published in patent US20190298824A1, “ALBUMIN-BINDING IMMUNOMODULATORY COMPOSITIONS AND METHODS OF USE THEREOF” (THE UNITED STATES OF AMERICA, as represented by the …, priority 2016, published 2019).
Like-named read-outs stand apart in the source and are kept apart here. Values belong to the substance of their own block, whether it stands above or below them. Where no end group is shown, it is not given here.

How the values were obtained:
[1] = PET imaging of 64Cu-labeled AlbiAdpgk LN delivery; assay type: in vivo, FVB mice
Experimental: FIG. 25A-25D. Representative coronal and transverse of PET images (A) at 6 h post injection and quantification (B) of AlbiAdpgk, free Adpgk, and IFA(Adpgk) in IN and AX LNs of FVB mice (n=4/group). White arrows mark the LNs. (C) Quantified biodistribution of ^64Cu-labeled AlbiAdpgk in organs by γ-counting of excised organs at 48 h post injection. (D) % ID at injection sites quantified from decay-corrected PET scans.
(§1) Encouraged by the efficient delivery of peptide antigen, AlbiVax-based neoantigen delivery was exploited for personalized tumor immunotherapy. Adpgk, a neoantigen [ASMTN(R→M)ELM] (SEQ ID NO: 86) in MC38 (colon cancer) tumor cells^7 was used. The conjugation of hydrophilic MEB improved the water solubility of MEB-Adpgk (denoted as AlbiAdpgk).

[2] = water solubility of MEB-peptide conjugates; assay type: physicochemical
Text: (§2) Tyrosinase-related protein 2 (Trp2), a melanoma-associated subunit Ag, was used in this study. Trp2 with an N-terminal cysteine was conjugated with MEB to prepare albumin-binding MEB-Trp2 (denoted as AlbiTrp2). Hydrophilic MEB increased the water solubility of AlbiTrp2 relative to Trp2, and the resulting amphiphilic AlbiTrp2 self-assembled into nanoparticles in aqueous solution (FIG. 21A, 21B). […] To study LN-targeted Trp2 delivery, ^64Cu-labeled AlbiTrp2 was s.c. injected at the tail base of FVB mice for PET imaging (FIG. 22A).
as §1

[3] = PET imaging of vaccine uptake in LNs of B16F10 tumor-bearing mice; assay type: in vivo, C57BL/6 mice
Text: FIG. 23A-23D. Representative PET images (A) and the corresponding quantification (B) showing the uptake of AlbiCpG (MEB-(HEG)2-CpG) in draining IN LNs and AX LNs of B16F10 tumor-bearing C57BL/6 mice. […] (C-D) Representative PET images (c) and the corresponding quantification (D) showing the uptake of AlbiTrp2 in LNs (IN and AX) of B16F10 tumor-bearing C57BL/6 mice. (Coro: coronal; trans: transverse; proj: projection; ID: injection dose; ID/g: ID/gram of organ weight)
For immunotherapy, C57BL/6 mice s.c. inoculated with 3×10^5 B16F10 cells were treated with AlbiCpG (2 nmole CpG equivalents)+AlbiTrp2 (20 μg) on days 6, 12, and 18 post inoculation. […] Furthermore, using a combination of multiple synergistic therapeutics can be used.

[4] = biological target: albumin; assay: albumin binding of AlbiTrp2; conditions: R^2=0.88
Text: FIG. 21A-21C. TEM (A) and AFM (B) images of albumin/AlbiTrp2 nanocomplexes. The length-height graph in (B) was shown for the marked crossline in AFM image. (C) Albumin binding of AlbiTrp2 recovered the MEB fluorescence.
as §2

[5] = PET imaging of 64Cu-labeled AlbiTrp2 LN delivery; assay type: in vivo, FVB mice; conditions: within 3 days
Text: FIG. 22A-22B. […] White arrows mark LNs.
as §2

[6] = parameters: species or system BALB/c mice; conditions: mouse, in vivo
Text: FIGS. 8A-8E. Biodistribution and LN retention of CpG on day3 and day5, as determined by ROI signal quantification of PET images and γ-counting of isolated organs. (A) PET quantification of the % ID of different forms of CpG in major organs on Day3. (B) Detailed PET quantification of the % ID of different forms of CpG in IN and AX LNs on Day3. (C) γ-counting quantification of the % ID/g of different forms of CpG in LNs on Day3. (D) γ-counting quantification of the % ID/g of different forms of CpG in major organs on Day5. (E) γ-counting quantification of the % ID/g of different forms of CpG in LNs on Day5. Due to signal decay over 5 days, the radioactivity was too low to be detected by PET on day5, so the % injection dose on Day5 was not determined by PET. ID: injection dose; ID/g: injection dose/gram of tissue.
The blood had less than 4% ID/g for all tested formulations. On day 5 post injection, even though the radioactivity of ^64Cu-labeled vaccines was too low to be sensitively detected by PET, the radioactivity of ex vivo organs were sensitively measured to determine the biodistribution profile (FIGS. 8D-8E).

[7] = mouse, in vivo, sc
Experimental: (A) Structures, formulations, and radiolabeling strategies of CpG derivatives for PET-based screening. (B) Representative coronal PET images showing FVB mice at 6 h post s.c. injection of CpG derivatives at tail base. […] White arrow heads mark IN and AX LNs. (C) Amounts of CpG derivatives in IN and AX LNs quantified from 3D-reconstructed, decay-corrected PET images (n=4-8).
Coronal (coro), transverse (trans), and 3D projection (proj) of PET images showing efficient LN-targeted delivery and whole-body distribution of MH2C over 3 days post injection. White arrow heads mark IN and AX LNs. The scale bar for 3D proj was based on the maximal signal intensity in each image. (Injection dose: 120 μCi; ID: injection dose).
Mice were s.c. injected with ^64Cu-radiolabeled AlbiCpG, followed by PET imaging to reveal its 3D biodistribution in mice over 3 days (FIG. 5B). […] Based on PET, decay-corrected radioactivity in draining inguinal (IN) LNs, and axillary (AX) LNs. LNs were quantified as the percentage of injection dose (% ID) (FIG. 5C).

[8] = tested on: BMDCs and RAW264.7 macrophages; assay: ELISA of proinflammatory factors in culture medium (in vitro immunostimulation); assay type: cell-based
[9] = biological target: albumin; assay: method not named; recovery of MEB fluorescence on albumin binding (FIG. 21C)
Target sequence in this assay (P02768 25-609): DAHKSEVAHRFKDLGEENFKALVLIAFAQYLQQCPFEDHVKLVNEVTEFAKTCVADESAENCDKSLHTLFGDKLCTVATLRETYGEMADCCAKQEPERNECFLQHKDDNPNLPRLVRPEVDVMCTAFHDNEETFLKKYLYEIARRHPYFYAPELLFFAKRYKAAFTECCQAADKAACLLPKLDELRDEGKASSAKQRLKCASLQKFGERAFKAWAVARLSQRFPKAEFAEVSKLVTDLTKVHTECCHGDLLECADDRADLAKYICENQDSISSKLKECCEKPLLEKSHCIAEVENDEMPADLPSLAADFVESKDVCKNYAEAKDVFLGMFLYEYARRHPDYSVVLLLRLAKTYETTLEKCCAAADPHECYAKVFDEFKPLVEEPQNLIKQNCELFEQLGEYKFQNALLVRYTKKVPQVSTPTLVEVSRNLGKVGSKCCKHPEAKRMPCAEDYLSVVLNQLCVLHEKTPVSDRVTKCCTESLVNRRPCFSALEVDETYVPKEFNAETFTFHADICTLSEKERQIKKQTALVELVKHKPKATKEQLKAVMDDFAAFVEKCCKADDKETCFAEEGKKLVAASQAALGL

Substance: AlbiAdpgk: MEB conjugate of Adpgk neoantigen ASMTNMELM (SEQ ID NO: 86) of MC38 (also: MEB (albumin-binding) conjugate, site not given here)
- amount trapped at the injection sites relative to IFA(Adpgk) ([1]; PET): Significantly less
- AUC in IN and AX LNs relative to Adpgk or IFA(Adpgk) ([1]; within 2 days): 43 fold
- water solubility ([2]; relative to unconjugated peptide): improved

Substance: AlbiTrp2: Trp2 peptide with N-terminal cysteine conjugated with MEB (CSVYDFFVWL)
- delivery to LNs in tumor-bearing mice [3]: efficiently delivered to LNs except tumor draining axillary LNs
- Kd [4]: 790 nM
- AUC in LNs relative to free Trp2 [5]: 91 fold
- water solubility [2]: increased

- % ID/g in inguinal LNs [6]: 8.3±4.7 % ID/g
- radioactivity density in axillary LNs [6]: 3.2±1.2 %/g
Substance: CpG 1826
- accumulation / retention in LNs [7]: no apparent accumulation in any of the LNs

Substance: MEB-GpC: MEB conjugate of control GpC ODN (TCCATGAGCTTCCTGAGCTT, SEQ ID NO: 34) (DNA, backbone and methylation of C not given here; further chemistry not fully specified)
- secretion of proinflammatory factors (ELISA) ([8]; BMDCs and RAW264.7 macrophages): did not stimulate these cells significantly more potently than the background
- immunostimulatory activity (ELISA of culture medium) ([8]; RAW264.7 macrophages, alone or premixed with HSA): inactive for immunostimulation

- Kd [9]: 790 nM
Substance: MEB-Trp2 (albumin-binding conjugate of maleimide-functionalized truncated Evans Blue with Trp2 peptide bearing an N-terminal cysteine) (from UniProt P29812 180-188)
